In paper PMC2119095:

Biological target: Ld class I MHC molecule of the mouse, properly folded form detected by mAb 30-5-7 (mouse)
Assay: radioligand binding + co-IP

Chain of Ld class I MHC molecule of the mouse, properly folded form detected by mAb 30-5-7 (mouse) (P01897 25-362): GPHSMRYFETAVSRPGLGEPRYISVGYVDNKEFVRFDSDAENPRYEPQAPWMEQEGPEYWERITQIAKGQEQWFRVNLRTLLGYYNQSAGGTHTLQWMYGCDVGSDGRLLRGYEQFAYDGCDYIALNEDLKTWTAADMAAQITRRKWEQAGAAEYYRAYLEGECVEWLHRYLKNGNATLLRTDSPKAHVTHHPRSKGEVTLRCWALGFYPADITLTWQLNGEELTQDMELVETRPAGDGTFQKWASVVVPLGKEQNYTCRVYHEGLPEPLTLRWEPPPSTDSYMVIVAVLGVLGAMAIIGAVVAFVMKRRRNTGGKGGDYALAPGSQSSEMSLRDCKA

Substance: murine CMV peptide (pp89, 168-176)
- percent of the FCS control (cells in serum-free medium during the 4 h assay): 85%
- percent of the surface plus lysate peptide binding accounted for by surface Ld: 80%
